Several values for one entry are separate records, joined by “and”; a condition that tells them apart may be missing. Equal values may be shown once.
Tests used:
[1] = target: T1, HLA class I histocompatibility antigen, alpha chain E (HLA-E), plate-bound recombinant protein (human, UniProt P13747 22-305, limits assumed); experiment: Dual binding ELISA: coat mHLA-E (Novus) as printed, detect Anti-mCD48 (R&D), HRP Anti-Goat HRP
T1 construct: no tag named there; also called recombinant HLA-E protein
T1 sequence (P13747 22-305 limits assumed): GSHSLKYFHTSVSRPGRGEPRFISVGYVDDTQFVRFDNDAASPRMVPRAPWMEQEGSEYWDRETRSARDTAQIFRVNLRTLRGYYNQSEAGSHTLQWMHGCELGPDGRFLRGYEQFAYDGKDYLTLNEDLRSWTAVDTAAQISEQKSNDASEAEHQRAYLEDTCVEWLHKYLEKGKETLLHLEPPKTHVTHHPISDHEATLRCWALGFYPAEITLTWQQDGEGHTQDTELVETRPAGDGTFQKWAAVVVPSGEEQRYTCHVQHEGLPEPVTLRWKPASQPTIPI

[2] = target: T2, recombinant mCD47 (mCD47-His) protein (mouse, UniProt Q61735 19-140, limits assumed); experiment: sandwich ELISA, anti-NKG2a antibody coated, mCD47-His detection (FIG. 38)
T2 construct: not shown: His tag
T2 sequence (looked up): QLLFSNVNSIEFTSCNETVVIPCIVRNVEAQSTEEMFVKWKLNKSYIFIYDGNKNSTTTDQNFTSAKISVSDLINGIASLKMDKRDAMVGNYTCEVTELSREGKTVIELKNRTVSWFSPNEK
Description: Increasing amounts of the mSIRPα-Fc-NKG2A chimeric protein was added and detected using mCD47-His. The CD86-Fc-NKG2A chimeric protein was used as a negative control.
To understand whether the mSIRPα-Fc-NKG2A chimeric protein can binds simultaneously to both anti-NKG2a and CD47, the following ELISA experiment was carried out. Briefly, and anti-NKG2a antibody was coated on plates. Increasing amounts of the mSIRPα-Fc-NKG2A and mCD48-Fc-NKG2A chimeric proteins were added to the plates for capture by the anti-NKG2a antibody. Further, recombinant mCD47 (mCD47-His) protein was added to the plate for capture by mSIRPα-Fc-NKG2A chimeric protein. The binding of the mCD47-His protein was detected using an anti-His HRP antibody.

[3] = target: T3, recombinant human CD28-His (rhCD28-His) (human, UniProt P10747 19-152); experiment: ELISA: coat rhCD28-His (Acro), detection printed as Anti-hFc-HRP
T3 construct: also called Human CD28-His protein; recombinant CD28 protein; not shown: His tag
T3 sequence (P10747 19-152 limits assumed): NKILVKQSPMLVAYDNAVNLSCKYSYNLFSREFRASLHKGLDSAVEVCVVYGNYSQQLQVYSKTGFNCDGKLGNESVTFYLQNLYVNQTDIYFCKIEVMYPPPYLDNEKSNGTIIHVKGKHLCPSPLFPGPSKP
Description: To understand whether the CD80 and CD86 parts of the hCD80-Fc-NKG2A and hCD86-Fc-NKG2A chimeric protein can bind CD28, ELISA-based assays were performed. Briefly, recombinant CD28 protein was coated on plates and increasing amounts of the hCD80-Fc-NKG2A, hCD86-Fc-NKG2A, and mCD48-Fc-NKG2A chimeric proteins, and recombinant human CD86-Fc (rhCD86-Fc) protein was added to the plates for capture by the plate-bound recombinant CD28 protein. The mCD48-Fc-NKG2A chimeric protein, and recombinant human CDrhCD86-Fc protein was used as negative and positive controls, respectively. The chimeric proteins bound to the recombinant CD28 protein was detected using an anti-human Fc HRP.

[4] = target: T4, anti-mFc IgG antibody (plate-bound); experiment: Fc ELISA: coat Anti-mFc (Jax), detect Anti-mFc-HRP (Jax)
T4 construct: also called anti-Fc antibody
Description: A mouse whole IgG was used to generate a standard curve.

B1: mouse CD48-Fc-NKG2A chimeric protein (Fc fusion)
chain: FQGHSIPDINATTGSNVTLKIHKDPLGPYKRITWLHTKNQKILEYNYNSTKTIFESEFKGRVYLEENNGALHISNVRKEDKGTYYMRVLRETENELKITLEVFDPVPKPSIEINKTEASTDSCHLRLSCEVKDQHVDYTWYESSGPFPKKSPGYVLDLIVTPQNKSTFYTCQVSNPVSSKNDTVYFTLPCDLARSVPRDCGCKPCICTVPEVSSVFIFPPKPKDVLTITLTPKVTCVVVDISKDDPEVQFSWFVDDVEVHTAQTQPREEQFNSTFRSVSELPIMHQDWLNGKEFKCRVNSAAFPAPIEKTISKTKGRPKAPQVYTIPPPKEQMAKDKVSLTCMITDFFPEDITVEWQWNGQPAENYKNTQPIMDTDGSYFVYSKLNVQKSNWEAGNTFTCSVLHEGLHNHHTEKSLSHSPGIIEGRMDTPYTEAKAQINSSMTRTHRDINYTLSSAQPCPHCPKEWISYSHNCYFIGMERKSWNDSLVSCISKNCSLLYIDSEEEQDFLQSLSLISWTGILRKGRGQPWVWKEDSIFKPKIAEILHDECNCAMMSASGLTADNCTTLHPYLCKCKFPI
notes: also called mCD48-Fc-NKG2A
[1]
  EC50: 537 nM and 381 nM
[2]
  binding result: no binding
[3]
  binding result: no binding (tested: log[Agonist] about 2.7, ug/ml)
[4]
  EC50: 0.938 nM and 0.436 nM

From patent US20200399344A1 (SHATTUCK LABS, published 2020)
